Measurements published in article PMC4374775, “New Insights on the Mechanism of the K^+-Independent Activity of Crenarchaeota Pyruvate Kinases” (PLoS ONE, 2015).
Like-named read-outs stand apart in the source and are kept apart here.

Assays:
[1] = target: T1, Thermofilum pendens pyruvate kinase (TpPK) (Thermofilum pendens, UniProt A1RX09); assay: dead-end inhibition kinetics, LDH/NADH-coupled assay, […]°C, pH […]; assay type: biochemical
T1 construct: gene Tpen_0330; full-length with N-terminal His6 tag and TEV site (23 additional residues); homotetramer

[2] = target: Thermofilum pendens pyruvate kinase (Thermofilum pendens); assay: native gel or EMSA; BN-PAGE, overnight at 4°C, 150 μg of TpPK; RMPK as molecular weight marker; native band of approximately 200 kDa
[3] = substrate: Nc1ncnc2c1ncn2[C@@H]1O[C@H](COP(=O)(O)OP(=O)(O)O)[C@@H](O)[C@H]1O; assay: initial velocity kinetics (Km), LDH/NADH-coupled assay; assay type: biochemical, Thermofilum pendens; settings: Mg2+ active site; random-order binding with PEP
purified protein = substrate: C=C(OP(=O)(O)O)C(=O)O; assay: purified protein; settings: Mg2+ active site; random-order binding with ADP-Mg

Nc1ncnc2c1ncn2[C@@H]1O[C@H](COP(=O)(O)O)[C@@H](O)[C@H]1O [AMP]
Ki ([1]; read-out: K i (AMP)): 35 ± 1.2 mM

O=C(O)C(=O)O [oxalate]
Ki ([1]; read-out: K i (oxalate)): 0.05 ± 0.002 mM

Thermofilum pendens pyruvate kinase (enzyme)
stoichiometry N [2]: 4

B1: Thermofilum pendens pyruvate kinase (TpPK) (Thermofilum pendens Hrk 5) (protein)
chain: MAKVKLVATLGPSSWSEETMKRMVAEGVNAFRLNFSHVDYARFEELAKQVRRLETPLRPLTLIADLQGPVIRLGEFAPFQVRPGDRVTFTLSSKTEEKYAVPVPNGVFFEIVREGDEVLVEGGRLAFRIVDAGPEKAVGEALLEGEVKPRKTVTVRGKDIPLPTITEKDLRDIEFSVKAGFDAIALSFVRSSSDVQRLRDILFDYGAEDVKIIAKIETKSAVEDLDSILQKSDAALVARGDLANFYGLEEIYSIQRYIISRARRFGKPSIVATQLLESMISNPLPTRSEVVDVITAVRMGADALLLAGETAAGKYPVESVYWLRRIVEEAEREPLEVEDVAPDKSDLYESIAKGVVSLAEVISGKIIAFSEKGNTARRISKFRPKAGLIVFTNDPATARYVNMIYGVRVVYDPSLSKADQNLFSKMLSKALEHNLVNLGDLVVFTSGRRRGSTDLVSVERVKSE
notes: full-length with N-terminal His6 tag and TEV site (23 additional residues); homotetramer
Km [3]: 0.16 ± 0.01 mM
Km (purified protein): 0.38 ± 0.03 mM
